Values of other authors as cited in PMC7421905.

Molecular target: Laminin 411 (Homo sapiens) (UniProt Q16363)
Sequence of UniProt Q16363 (Q16363 25-1823, chain 1 of 3): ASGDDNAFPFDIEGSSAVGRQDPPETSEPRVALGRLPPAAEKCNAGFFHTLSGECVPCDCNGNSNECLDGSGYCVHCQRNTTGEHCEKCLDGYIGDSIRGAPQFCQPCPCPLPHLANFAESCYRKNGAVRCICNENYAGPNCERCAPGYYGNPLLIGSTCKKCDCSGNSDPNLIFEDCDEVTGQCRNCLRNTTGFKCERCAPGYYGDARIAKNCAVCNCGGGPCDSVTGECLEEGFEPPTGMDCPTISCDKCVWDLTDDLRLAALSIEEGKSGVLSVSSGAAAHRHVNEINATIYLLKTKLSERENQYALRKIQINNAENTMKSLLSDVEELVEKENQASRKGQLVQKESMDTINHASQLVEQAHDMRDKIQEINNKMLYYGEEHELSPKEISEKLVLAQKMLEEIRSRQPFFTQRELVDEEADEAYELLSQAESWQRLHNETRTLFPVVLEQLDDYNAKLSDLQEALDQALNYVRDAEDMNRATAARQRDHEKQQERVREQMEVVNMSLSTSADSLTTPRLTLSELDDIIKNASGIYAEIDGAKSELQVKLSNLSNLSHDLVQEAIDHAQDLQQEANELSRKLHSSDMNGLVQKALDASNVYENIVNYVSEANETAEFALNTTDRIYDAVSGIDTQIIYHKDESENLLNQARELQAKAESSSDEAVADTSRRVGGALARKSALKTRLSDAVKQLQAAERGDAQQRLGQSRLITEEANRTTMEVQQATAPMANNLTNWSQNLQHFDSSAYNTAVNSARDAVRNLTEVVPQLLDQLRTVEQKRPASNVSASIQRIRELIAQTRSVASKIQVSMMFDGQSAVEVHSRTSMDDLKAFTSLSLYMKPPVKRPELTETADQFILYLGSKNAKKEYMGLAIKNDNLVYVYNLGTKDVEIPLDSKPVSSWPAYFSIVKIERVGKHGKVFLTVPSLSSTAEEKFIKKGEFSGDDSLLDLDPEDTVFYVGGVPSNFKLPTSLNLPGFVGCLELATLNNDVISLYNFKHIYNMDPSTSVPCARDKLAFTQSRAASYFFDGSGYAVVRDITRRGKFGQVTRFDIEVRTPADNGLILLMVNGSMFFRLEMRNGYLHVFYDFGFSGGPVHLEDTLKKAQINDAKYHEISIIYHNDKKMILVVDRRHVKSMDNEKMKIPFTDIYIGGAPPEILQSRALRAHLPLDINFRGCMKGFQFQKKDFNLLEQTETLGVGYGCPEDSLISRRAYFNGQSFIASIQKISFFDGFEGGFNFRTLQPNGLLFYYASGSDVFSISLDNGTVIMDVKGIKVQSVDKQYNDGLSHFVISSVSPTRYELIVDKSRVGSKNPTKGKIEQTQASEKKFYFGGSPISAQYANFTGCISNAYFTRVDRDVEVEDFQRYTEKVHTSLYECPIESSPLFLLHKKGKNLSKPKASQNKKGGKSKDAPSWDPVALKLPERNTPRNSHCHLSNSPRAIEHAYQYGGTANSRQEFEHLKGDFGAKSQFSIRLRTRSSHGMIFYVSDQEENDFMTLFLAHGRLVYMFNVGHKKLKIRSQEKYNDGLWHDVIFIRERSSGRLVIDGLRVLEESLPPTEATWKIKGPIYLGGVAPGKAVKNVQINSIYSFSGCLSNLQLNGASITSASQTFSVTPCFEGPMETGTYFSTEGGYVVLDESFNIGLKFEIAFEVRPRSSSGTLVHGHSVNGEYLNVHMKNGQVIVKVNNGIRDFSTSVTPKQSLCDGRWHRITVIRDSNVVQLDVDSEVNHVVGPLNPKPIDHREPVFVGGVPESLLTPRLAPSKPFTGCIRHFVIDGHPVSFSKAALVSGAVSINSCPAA
Sequence of UniProt Q16363 (P07942 22-1786, chain 2 of 3, further chain): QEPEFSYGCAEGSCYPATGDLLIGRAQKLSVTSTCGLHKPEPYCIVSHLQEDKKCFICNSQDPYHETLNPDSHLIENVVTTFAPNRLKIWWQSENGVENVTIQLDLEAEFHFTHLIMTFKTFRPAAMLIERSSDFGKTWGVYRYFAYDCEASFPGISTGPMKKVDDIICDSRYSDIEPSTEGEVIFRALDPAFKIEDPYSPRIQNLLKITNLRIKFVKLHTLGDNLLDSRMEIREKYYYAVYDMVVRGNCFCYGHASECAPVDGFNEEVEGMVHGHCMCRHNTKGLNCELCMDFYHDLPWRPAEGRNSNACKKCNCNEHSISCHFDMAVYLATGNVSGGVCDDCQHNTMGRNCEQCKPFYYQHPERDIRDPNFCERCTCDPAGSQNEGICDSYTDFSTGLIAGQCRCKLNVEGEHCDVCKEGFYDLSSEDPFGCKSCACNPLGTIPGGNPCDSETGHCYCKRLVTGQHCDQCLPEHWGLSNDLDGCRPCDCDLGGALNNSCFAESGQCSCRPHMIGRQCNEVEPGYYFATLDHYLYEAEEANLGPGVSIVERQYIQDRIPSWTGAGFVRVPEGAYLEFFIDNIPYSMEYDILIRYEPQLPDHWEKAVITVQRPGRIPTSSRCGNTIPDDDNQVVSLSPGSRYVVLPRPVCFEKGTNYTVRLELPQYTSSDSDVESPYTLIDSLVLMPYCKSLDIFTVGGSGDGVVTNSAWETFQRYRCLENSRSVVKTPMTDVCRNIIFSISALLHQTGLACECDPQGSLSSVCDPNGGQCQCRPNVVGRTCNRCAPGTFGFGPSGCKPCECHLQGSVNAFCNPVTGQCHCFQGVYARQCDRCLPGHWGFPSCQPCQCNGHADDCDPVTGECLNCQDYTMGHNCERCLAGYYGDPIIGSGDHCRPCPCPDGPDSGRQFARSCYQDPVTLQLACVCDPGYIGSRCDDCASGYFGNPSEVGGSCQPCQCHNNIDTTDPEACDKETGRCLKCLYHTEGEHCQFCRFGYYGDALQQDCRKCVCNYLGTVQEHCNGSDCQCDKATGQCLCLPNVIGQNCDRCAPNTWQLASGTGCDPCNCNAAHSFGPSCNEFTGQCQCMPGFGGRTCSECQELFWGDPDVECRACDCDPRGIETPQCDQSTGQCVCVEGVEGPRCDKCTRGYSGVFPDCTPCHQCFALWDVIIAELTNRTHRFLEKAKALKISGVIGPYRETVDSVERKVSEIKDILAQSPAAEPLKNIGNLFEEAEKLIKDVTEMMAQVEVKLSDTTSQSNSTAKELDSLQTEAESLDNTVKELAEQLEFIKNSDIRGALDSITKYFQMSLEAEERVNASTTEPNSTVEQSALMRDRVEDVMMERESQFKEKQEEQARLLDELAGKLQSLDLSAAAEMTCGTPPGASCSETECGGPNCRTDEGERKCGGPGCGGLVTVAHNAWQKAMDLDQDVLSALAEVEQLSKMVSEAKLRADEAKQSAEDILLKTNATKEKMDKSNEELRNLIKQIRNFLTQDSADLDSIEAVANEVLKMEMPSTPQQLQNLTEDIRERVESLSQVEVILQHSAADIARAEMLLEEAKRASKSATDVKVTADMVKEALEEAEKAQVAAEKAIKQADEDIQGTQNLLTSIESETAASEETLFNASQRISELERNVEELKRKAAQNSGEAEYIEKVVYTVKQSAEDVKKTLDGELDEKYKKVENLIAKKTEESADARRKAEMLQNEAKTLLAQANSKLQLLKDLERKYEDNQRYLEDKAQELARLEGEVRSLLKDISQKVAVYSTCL
Sequence of UniProt Q16363 (P11047 34-1609, chain 3 of 3, further chain): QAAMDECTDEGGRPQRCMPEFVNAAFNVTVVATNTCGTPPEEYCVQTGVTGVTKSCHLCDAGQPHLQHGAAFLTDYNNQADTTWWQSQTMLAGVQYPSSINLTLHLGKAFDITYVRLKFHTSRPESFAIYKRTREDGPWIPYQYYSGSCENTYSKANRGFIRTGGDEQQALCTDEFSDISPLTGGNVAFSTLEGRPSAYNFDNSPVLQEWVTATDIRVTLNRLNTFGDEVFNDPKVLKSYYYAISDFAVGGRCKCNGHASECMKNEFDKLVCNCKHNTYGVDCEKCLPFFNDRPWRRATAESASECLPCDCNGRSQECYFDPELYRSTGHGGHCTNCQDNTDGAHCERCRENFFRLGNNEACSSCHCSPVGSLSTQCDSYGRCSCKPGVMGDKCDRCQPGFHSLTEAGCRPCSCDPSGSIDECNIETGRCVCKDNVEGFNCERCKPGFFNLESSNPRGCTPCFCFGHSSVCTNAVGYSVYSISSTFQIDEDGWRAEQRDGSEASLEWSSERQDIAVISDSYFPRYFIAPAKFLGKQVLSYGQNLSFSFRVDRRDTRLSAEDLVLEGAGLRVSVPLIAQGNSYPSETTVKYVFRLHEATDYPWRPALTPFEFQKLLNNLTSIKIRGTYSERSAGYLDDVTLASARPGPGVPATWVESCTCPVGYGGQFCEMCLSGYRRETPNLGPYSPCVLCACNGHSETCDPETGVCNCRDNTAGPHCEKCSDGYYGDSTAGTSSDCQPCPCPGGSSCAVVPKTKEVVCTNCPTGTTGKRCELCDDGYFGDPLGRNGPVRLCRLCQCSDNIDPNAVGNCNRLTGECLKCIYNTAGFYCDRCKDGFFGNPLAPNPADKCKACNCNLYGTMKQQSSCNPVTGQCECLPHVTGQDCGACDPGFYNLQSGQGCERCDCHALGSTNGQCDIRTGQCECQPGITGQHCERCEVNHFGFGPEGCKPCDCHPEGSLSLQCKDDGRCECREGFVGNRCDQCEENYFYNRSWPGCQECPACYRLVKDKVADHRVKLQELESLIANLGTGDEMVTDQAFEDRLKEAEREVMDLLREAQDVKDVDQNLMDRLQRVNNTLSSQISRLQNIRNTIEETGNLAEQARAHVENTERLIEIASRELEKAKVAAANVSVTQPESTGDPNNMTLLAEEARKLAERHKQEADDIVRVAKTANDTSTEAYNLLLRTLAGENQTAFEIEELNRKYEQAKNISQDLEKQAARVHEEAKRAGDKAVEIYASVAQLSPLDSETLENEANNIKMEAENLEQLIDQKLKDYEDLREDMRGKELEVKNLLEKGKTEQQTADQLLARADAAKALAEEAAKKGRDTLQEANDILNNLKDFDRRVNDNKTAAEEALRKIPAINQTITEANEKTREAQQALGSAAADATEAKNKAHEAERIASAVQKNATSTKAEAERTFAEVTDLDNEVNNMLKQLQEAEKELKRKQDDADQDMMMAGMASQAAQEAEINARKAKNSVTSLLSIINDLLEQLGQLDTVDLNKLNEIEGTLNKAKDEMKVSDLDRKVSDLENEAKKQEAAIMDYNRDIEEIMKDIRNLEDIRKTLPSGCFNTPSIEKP

For CD146-Fc (from UniProt P43121), the Kd is listed as 27 nM.
